Literature values as cited in paper PMC8403128.
Read-outs that look alike come from different tables or passages of the source.

How the values were obtained:
[1] = molecular target: Low-density lipoprotein receptor-related protein 1 (Homo sapiens) (UniProt Q07954)
[2] = molecular target: Low-density lipoprotein receptor-related protein 1 (Homo sapiens) (UniProt Q07954); remark: listed apart in the source

Chain of UniProt Q07954 (Q07954 4441-4544): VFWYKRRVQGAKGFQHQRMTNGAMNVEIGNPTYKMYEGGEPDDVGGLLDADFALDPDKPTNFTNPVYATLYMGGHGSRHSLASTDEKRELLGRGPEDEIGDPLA

| Kd [1] | Kd [2] | Substance |
| --- | --- | --- |
| > 1000 nM |  | Matrix metalloproteinase-1 (from UniProt P03956) |
|  | > 1000 nM | Matrix metalloproteinase-3 (from UniProt P08254) |
